Data from the DeepSol protein solubility set.

Experiment: soluble on expression in E. coli; label from the status in PepcDB or PDB records

Sequence | soluble on expression in E. coli
MAVLIETTLGDLIIDLFVKERPRCSLNFLKLCKKKYYNLNQFHSIERNYVAQTGDPTGTGKGGESVYSDMYGEQGRYFEREDLPKMRHTRMGIVSFVNNGDNMLGSQFFITLGENLDYLDDQHTIFGQVTEGLETLEKLNEQLADTNNRPFKDIRISHTIVLDDPFDEDARISFPPRSPSPTYEMLVKTDQIALDEKEDEDEGKTAEEIAEELQQREMAEQAQILEMVGDLKDADEVPPENVLFVCKLNPVTTDEDLEIIFSRFGKINNCEIVRDRRSGDSLQYAFIEFDNAKSCEQAFFKMDNVLIDDRRIHVDFSQSVSQNYKYKPKSQQQEAPKRRQSPQRRPEVKRSHQRSPSPRRRRSPSPKKDKKRDYRREPARRRRSSDNHRDRDRSYRDNNRDRRDNHRDSDRDRRRHDRSPDRRRDRR | not soluble
MAVNLNPPQAGQLPAVAGVELLVAEAGIKTPGRKDVLVVKLDKGNTVAGVFTRNRFCAAPVQLCQEHLAAGVQIRALVVNTGNANAGTGFDGRARALSVCRAVAERDQLQTEQVLPFSTGVILEPLPADKIVAALPALRQADWAEAAEAIMTTDTLAKAASRRLDIGGKAVTVTGIAKGSGMIHPNMATMLGFVATDAAVTRPMLNQLVREVADQSFNSITVDGDTSTNDSFILISTGQSGAELIDSAEQPAYQQLKQALLEVAIELAQAIVRDGEGATKFITVDVNGGRSVAECKDVAYAIARSPLVKTAFFASDPNLGRLLAAIGYAGVADLDVDRLSLYLDDVLVACEGGRNPAYKEAQGQAVMNQSEITVRVELGRGSASARVWTCDFSYEYVRINADYRSLEHHHHHH | not soluble
MAVPATIPLTITNNSGRAEQIHIYNLGTELSSGRQGWADASGAFHPWPAGGNPPTPAPDASIPGPAPGRSTTIQIPKFSGRIYFSYGRKMEFRLTTGGLVQPAVQNPTDPNRDILFNWSEYTLNDSGLWINSTQVDMFSAPYTVGVRRGDGTTLSTGKLRPGGYNGVFNALRGQSGGWANLIQTRSDGTVLRALSPLYGVETGALPASVMDDYINRVWNKYTGTDLIVTPFADRPDVRYTGRVSGGVLRFTDGSGAVVTTFQKPDASSVFGCHRLLDAPNDQVRGPISRTLCAGFNRTTLLANPHQPDRSAAGFYQEPVTNHYARIIHAHMADGKAYGFAFDDVGHHESLVHDGDPRGASLTLDPFD | soluble
MAVPPAYADLGKSAKDIFSKGYGFGTVKLDLKTKSQSGVEFTTGGSSNTDTGKAAGNLETKYKVKELGLSLNQKWNTDNVLTTEVTLEDQLAKGLKLGLDTSFVPNTGKKSAKLKTGYKREYMNVGCDLDFDLAGPTVHAAAVLGYEGWLAGYQMAFDTAKSKLAQNNFALGYKAGDFQLHTNVNDGTEFGGSIYQKVNGQLETAVNLAWTAGSNNTRFGIAAKYQLDKDSSVSAKVNNASLVGVGYTQSLRPGVKLTLSALIDAKNFNAGGHKVGMGFELEV | not soluble
MAVTVSVAQATPAPFDMAARFKALYTREWRWRQAEFPGVVERSSQPQCVDHLPKVDLARQNKRTAYWQQVLEELKTIDPVRLSSKDQINYQVYRQQIEVLLDGQRFRSWEMSFNSDTAFWSDLSFSARDRFRTSEDYRCYLGVLADIPRYFNEQIVNLRQGLARGFAQPRVTLEGRDQVIAEVAGAAGEDNLFYIPFKQMPTMMSAGEQARLRAQVLHLIVDQVVPAYRHLLAFMREEYLPKARTVLAAESLPGGVAYYRAKIFEYTTLDLDPEAIYQIGVAEVAKLRQQMDQVIVDSGFKTSPDQQIFSAFLRYLRTDPQFYPKTPEALLKEAAWIAKRVDAKIGLYIGRLPRRRFAIEPVPADVAPYYTSGRGGPGIYFVNTYDLPSRPLYNLTALTLHESSPGHALQMPLAEEAKEVPEFRRYAFISAYGEGWAVYAEYLGQEMGLYDTPYDRFGYLSYQIWRACRLVIDTGIHHKGWTRAQAQAYLRDNTALSEREITTEVDRYISWPGQALSYYLGELKILELRHKAEAALGAKFDIRHFHDAVLGLGSVPLQVLEARIDRFIAE | not soluble
MAVVGYISYDNRDTFMNAKDVLSTEIEAVNGKADTKESKECEDTQASDEVALETDSTEEILNAGETVLTSASTESEECVAQVKLGREQVRSKNKEALQKIIDDAGVSEAEKKSAVDAMVKLTENAQMEEDAQMMLEAKGFKNAVVSLSDECCDVIVGKDDVTDEKRAQIEDIIKRKTNIGASNIVISTMD | not soluble
MAYGVMSWWDYGHYIETLGHRMPNANPFQAGIGGRRGSINETNVPGAAPFLTAQSEEEATEVLESIHPDPEKSGARYIMSDERMAVDIFMAMPEWTLDTEGYMQPYWTGDGYQYLPSKRYFDSMESRLHFLDGNGLKQYRLVYETWAYQTQEAGYKQVYNFLYGSSIPEVDSGYVKIFEYVKGAKITGTVSPNETVNINTTILTGQGRTFEYSQLEHHHHHH | not soluble
